Measurements published in patent US20090214558A1 (Pfizer, published 2009).

T1: MAdCAM (analyte of the BIAcore experiment) (UniProt Q13477 19-317)
T1 construct: The antibodies are called anti-hMAdCAM; also called Mucosal addressin cell adhesion molecule
T1 sequence (looked up): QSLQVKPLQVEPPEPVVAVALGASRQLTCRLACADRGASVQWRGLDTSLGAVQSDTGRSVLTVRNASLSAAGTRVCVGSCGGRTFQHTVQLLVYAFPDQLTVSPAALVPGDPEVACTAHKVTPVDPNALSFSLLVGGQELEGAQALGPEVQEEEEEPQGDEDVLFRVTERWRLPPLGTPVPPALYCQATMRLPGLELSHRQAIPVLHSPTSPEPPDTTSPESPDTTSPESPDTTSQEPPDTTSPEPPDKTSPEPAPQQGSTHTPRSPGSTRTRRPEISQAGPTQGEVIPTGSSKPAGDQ


How the values were obtained:
[1] = target: T2, MAdCAM-IgG1 Fc fusion protein; experiment: inhibition of adhesion of calcein-loaded JY cells to plate-coated MAdCAM-IgG1 Fc fusion (fluorescence)
T2 construct: Made in CHO-DHFR cells and coated on plates at 4.5 µg/mL
Protocol: The cells were washed twice with RPMI 1640 media (Gibco) containing 2 mM L-glutamine (Gibco) by centrifugation (240 g), resuspending the final cell pellet at 2×10⁶ cells/mL in RPMI 1640 for Calcein AM loading. Calcein AM (Molecular Probes #C-3099) was added to the cells as a 1:200 dilution in DMSO (ca. final concentration 5 μM) and the cells protected from light during the course of the incubation (37° C. for 30 min). During this cell incubation step the antibodies to be tested, were diluted as follows: for single dose testing, the antibodies were made up to 3 μg/mL (1 μg/mL final) in 0.1 mg/mL BSA (Sigma#A3059) in PBS; for full IC₅₀ curves, the antibodies were diluted in 0.1 mg/mL BSA/PBS, with 3 μg/mL (1 μg/mL final) being the top concentration, then doubling dilutions (1:2 ratio) across the plate. The final well of the row was used for determining total binding, so 0.1 mg/ml BSA in PBS was used.
After blocking, the plate contents were flicked out and 50 μL of antibodies/controls were added to each well and the plate incubated at 37° C. for 20 min. During this time, Calcein-loaded JY cells were washed once with RPMI 1640 media containing 10% fetal bovine serum and once with 1 mg/mL BSA/PBS by centrifugation, resuspending the final cell pellet to 1×10⁶/mL in 1 mg/mL BSA/PBS. 100 μL of cells were added to each well of the U bottomed plate, the plate sealed, briefly centrifuged (1000 rpm for 2 min) and the plate then incubated at 37° C. for 45 min. At the end of this time, the plates were washed with a Skatron plate washer and fluorescence measured using a Wallac Victor² 1420 Multilabel Reader (excitation λ485 nm, emission λ535 nm count from top, 8 mm from bottom of plate, for 0.1 sec with normal emission aperture). For each antibody concentration, percent adhesion was expressed as a percentage of maximal fluorescence response in the absence of any antibody minus fluorescence associated with non-specific binding. The IC₅₀ value is defined as the anti-MAdCAM antibody concentration at which the adhesion response is decreased to 50% of the response in the absence of anti-MAdCAM antibody. Antibodies that were able to inhibit the binding of JY cells to MAdCAM-IgG₁ Fc fusion with an IC₅₀ value <0.1 μg/mL, were considered to have potent antagonist activity and were progressed to the MAdCAM-CHO adhesion assay.
Target sequence in this assay (chain, as listed by the source limits assumed): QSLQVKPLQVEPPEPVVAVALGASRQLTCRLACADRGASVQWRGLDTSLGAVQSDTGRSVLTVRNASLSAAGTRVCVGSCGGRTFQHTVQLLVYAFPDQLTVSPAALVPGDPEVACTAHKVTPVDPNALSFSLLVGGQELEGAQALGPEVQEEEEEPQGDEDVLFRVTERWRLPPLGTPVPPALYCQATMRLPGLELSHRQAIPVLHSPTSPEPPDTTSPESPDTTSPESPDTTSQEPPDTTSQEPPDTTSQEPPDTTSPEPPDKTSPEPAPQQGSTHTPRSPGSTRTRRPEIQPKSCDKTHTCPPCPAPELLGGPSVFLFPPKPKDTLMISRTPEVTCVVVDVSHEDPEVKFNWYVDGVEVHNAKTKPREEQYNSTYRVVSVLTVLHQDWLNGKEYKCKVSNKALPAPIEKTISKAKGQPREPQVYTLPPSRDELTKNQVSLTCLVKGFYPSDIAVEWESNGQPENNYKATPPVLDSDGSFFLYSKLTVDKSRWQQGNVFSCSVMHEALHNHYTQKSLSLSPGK

[2] = target: T1, MAdCAM (analyte of the BIAcore …); experiment: BIAcore (SPR); antibody immobilised, MAdCAM injected
[3] = target: T1, MAdCAM (analyte of the BIAcore …); experiment: BIAcore (SPR); antibody immobilised, MAdCAM injected; footnote: below the instrument's lower limit of 5 × 10^-6 s^-1
[4] = target: T1, MAdCAM (analyte of the BIAcore …); experiment: BIAcore (SPR); KD restated from the instrument's off-rate limit; the footnote says 7.16.6_V, but the ka used and the asterisk belong to 7.16.6_S; KD bound restated from the BIAcore off-rate limit (5 × 10^-6 s^-1), not the fitted 23.2 pM
[5] = target: T2, MAdCAM-IgG1 Fc fusion protein; experiment: MAdCAM-IgG1 Fc fusion: JY cell binding assay (inhibition of JY cell adhesion)

Binder	IC50 [1]	Kd [2]	koff [2]	kon [2]	IC50 [5]	further results
7.16.6_L (antibody, V domains shown, The light chain is the parent 7.16.6 kappa chain, rebuilt as for m1; also called 7.16.6_L variant) VH: QVQLVQSGAEVKKPGASVKVSCKASGYTFTSYGINWVRQAPGQGLEWMGWISVYSGNTNYAQKLQGRVTMTADTSTSTAYMDLRSLRSDDTAVYYCAREGSSSSGDYYYGMDVWGQGTTVTVSS VL: DIVMTQTPLSLSVTPGQPASISCKSSQSLLHTDGTTYLYWYLQKPGQPPQLLIYEVSNRFSGVPDRFSGSGSGTDFTLKISRVEAEDVGIYYCMQNIQLPWTFGQGTKVEIKR	0.0356 µg/mL	79.5 pM	1.21e-05 s⁻¹	152000 M⁻¹ s⁻¹		
6.67.1 (antibody, V domains shown) VH: QVQLQESGPGLVKPSETLSLTCTVSGDSISSNYWSWIRQPAGKGLEWIGRIYTSGGTNSNPSLRGRVTILADTSKNQFSLKLSSVTAADTAVYYCARDRITIIRGLIPSFFDYWGQGTLVTVSS VL: not shown					0.013 µg/mL	
6.67.1-mod_Y (antibody, V domains shown) VH: QVQLQESGPGLVKPSETLSLTCTVSGDSISSNYWSWIRQPAGKGLEWIGRIYTSGGTNSNPSLRGRVTMSVDTSKNQFSLKLSSVTAADTAVYYCARDRITIIRGLIPSFFDYWGQGTLVTVSS VL: not shown					0.063 µg/mL	
6.34.2 (antibody, V domains shown) VH: QVQLVESGGGVVQPGRSLRLSCAASGFTFSSYGMHWVRQAPGKGLEWVAVISNDGNNKYYADSVKGRFTISRDNSKNTLYLQMNSLSAEDTAVYYCARDSTAITYYYYGMDVWGQGTTVTVSS VL: DIQMTQSPSSLSASVGDRVTITCRASQNISSYLNWFQQKPGKAPKLLIYAASGLKRGVPSRFSGSGSGTDFTLTIRTLQPDDFATYSCHQSYSLPFTFGPGTKVDIKR					0.013 µg/mL	
6.34.2-mod_SSQ (antibody, human IgG2, kappa, V domains shown, Purified recombinant antibody) VH: QVQLVESGGGVVQPGRSLRLSCAASGFTFSSYGMHWVRQAPGKGLEWVAVISNDGNNKYYADSVKGRFTISRDNSKNTLYLQMNSLRAEDTAVYYCARDSTAITYYYYGMDVWGQGTTVTVSS VL: DIQMTQSPSSLSASVGDRVTITCRASQSISSYLNWYQQKPGKAPKLLIYAASSLSQGVPSRFSGSGSGTDFTLTISSLQPEDFATYYCHQSYSLPFTFGPGTKVDIKR					0.086 µg/mL	
6.77.1-mod_ΔS (antibody, human IgG2, kappa, V domains shown, Purified recombinant antibody; also called 6.77.1-mod_ΔAS) VH: EVQLVESGGGLVKPGGSLRLSCAASGFTFSSYSMNWVRQAPGKGLEWVSSISSSSSYIYYADSVKGRFTISRDNAKNSLYLQMNSLRAEDTAVYYCARDGYSSGWYYYYYGMDVWGQGTTVTVSS VL: DIVMTQTPLSLSVTPGQPASISCKSSQSLLLSDGKTYLNWYLQKPGQPPQLLIYEVSNRFSGVPDRFSGSGSGTDFTLKISRVEAEDVGVYSCMQSIQLMSSFGQGTKLEIKR					0.0485 µg/mL	
6.22.2 (antibody, V domains shown) VH: QVQLVESGGGVVQPGRSLRLSCAASGHTFSSDGMHWVRQAPGKGLEWVAIIWYDGSNKYYADSVKGRFTISRDNSKNTLYLQMNSLRAEDTAVYYCARDPGYYYGMDVWGQGTTVTVSS VL: EIVLTQSPDFQSVTPKEKVTITCRASQRIGSSLHWYQQKPDQSPKLLIKYASQSFSGVPSRFSGSGSGTNFTLTINGLEAEDAATYYCHQSGRLPLTFGGGTKVEIKR					0.018 µg/mL	
6.22.2-mod_V (antibody, human IgG2, kappa, V domains shown, Purified recombinant antibody) VH: QVQLVESGGGVVQPGRSLRLSCAASGFTFSSDGMHWVRQAPGKGLEWVAVIWYDGSNKYYADSVKGRFTISRDNSKNTLYLQMNSLRAEDTAVYYCARDPGYYYGMDVWGQGTTVTVSS VL: EIVLTQSPDFQSVTPKEKVTITCRASQRIGSSLHWYQQKPDQSPKLLIKYASQSFSGVPSRFSGSGSGTDFTLTINSLEAEDAATYYCHQSGRLPLTFGGGTKVEIKR					0.076 µg/mL	

More lines, main results first:

IC50 [1]	Kd [2]	koff [2]	kon [2]	IC50 [5]	Binder	further results
0.0412 µg/mL	162 pM	2.49e-05 s⁻¹	153000 M⁻¹ s⁻¹		7.16.6_V (antibody, human IgG2, kappa, V domains shown, Recombinant, from transiently transfected FreeStyle HEK293 cells; also called 7.16.6_V adduct) VH: QVQLVQSGAEVKKPGASVKVSCKASGYTFTSYGINWVRQAPGQGLEWMGWISVYSGNTNYAQKVQGRVTMTADTSTSTAYMDLRSLRSDDTAVYYCAREGSSSSGDYYYGMDVWGQGTTVTVSS VL: DIVMTQTPLSLSVTPGQPASISCKSSQSLLHTDGTTYLYWYLQKPGQPPQLLIYEVSNRFSGVPDRFSGSGSGTDFTLKISRVEAEDVGVYYCMQNIQLPWTFGQGTKVEIKR	
0.0582 µg/mL	90.8 pM	2.18e-05 s⁻¹	240000 M⁻¹ s⁻¹		7.16.6_VS (antibody, human IgG2, kappa, V domains shown, Recombinant, from transiently transfected FreeStyle HEK293 cells; also called 7.16.6_VS adduct) VH: QVQLVQSGAEVKKPGASVKVSCKASGYTFTSYGINWVRQAPGQGLEWMGWISVYSGNTNYAQKVQGRVTMTADTSTSTAYMDLRSLRSDDTAVYYCAREGSSSSGDYYYGMDVWGQGTTVTVSS VL: DIVMTQTPLSLSVTPGQPASISCKSSQSLLHTDGTTYLYWYLQKPGQPPQLLIYEVSNRFSGVPDRFSGSGSGTDFTLKISRVEAEDVGVYYCMQSIQLPWTFGQGTKVEIKR	
0.0458 µg/mL	119 pM	2.31e-05 s⁻¹	194000 M⁻¹ s⁻¹		7.16.6_LVS (antibody, human IgG2, kappa, V domains shown, Recombinant, from transiently transfected FreeStyle HEK293 cells) VH: QVQLVQSGAEVKKPGASVKVSCKASGYTFTSYGINWVRQAPGQGLEWMGWISVYSGNTNYAQKLQGRVTMTADTSTSTAYMDLRSLRSDDTAVYYCAREGSSSSGDYYYGMDVWGQGTTVTVSS VL: DIVMTQTPLSLSVTPGQPASISCKSSQSLLHTDGTTYLYWYLQKPGQPPQLLIYEVSNRFSGVPDRFSGSGSGTDFTLKISRVEAEDVGVYYCMQSIQLPWTFGQGTKVEIKR	
0.0342 µg/mL	23.2 pM		183000 M⁻¹ s⁻¹		7.16.6_S (antibody, human IgG2, kappa, V domains shown, Recombinant, from transiently transfected FreeStyle HEK293 cells; also called 7.16.6-5; 7.16.6_5) VH: QVQLVQSGAEVKKPGASVKVSCKASGYTFTSYGINWVRQAPGQGLEWMGWISVYSGNTNYAQKVQGRVTMTADTSTSTAYMDLRSLRSDDTAVYYCAREGSSSSGDYYYGMDVWGQGTTVTVSS VL: DIVMTQTPLSLSVTPGQPASISCKSSQSLLHTDGTTYLYWYLQKPGQPPQLLIYEVSNRFSGVPDRFSGSGSGTDFTLKISRVEAEDVGIYYCMQSIQLPWTFGQGTKVEIKR	koff [3]: 4.27e-06 s⁻¹; Kd [4]: < 27.3 pM
				0.072 µg/mL	9.8.2-mod_ΔRGAYH,D (antibody, human IgG4, kappa, V domains shown, Purified recombinant antibody; The heavy-chain constant region as printed is IgG4-like; also called 9.8.2_ΔRGAYH,D) VH: QVQLVESGGGVVQPGRSLRLSCAASGFTFSSYGMHWVRQAPGKGLEWVAVIWYDGSNEYYADSVKGRFTISRDNSKNTLYLQMNSLRAEDTAVYYCAFDYWGQGTLVTVSS VL: DIQMTQSPSSLSASVGDRVTITCQASQDISNYLNWYQQKPGKAPKLLIYDASNLETGVPSRFSGSGSGTDFTFTISSLQPEDIATYSCQHSDNLITFGQGTRLEIKR	
